We go through one substance from US20230322879A1.

For this assay, the target named is CC-chemokine receptor type 7 (CCR7) (UniProt P32248). Description: cell-based or functional assay.
UniProt P32248, sequence (P32248 25-378 limits assumed): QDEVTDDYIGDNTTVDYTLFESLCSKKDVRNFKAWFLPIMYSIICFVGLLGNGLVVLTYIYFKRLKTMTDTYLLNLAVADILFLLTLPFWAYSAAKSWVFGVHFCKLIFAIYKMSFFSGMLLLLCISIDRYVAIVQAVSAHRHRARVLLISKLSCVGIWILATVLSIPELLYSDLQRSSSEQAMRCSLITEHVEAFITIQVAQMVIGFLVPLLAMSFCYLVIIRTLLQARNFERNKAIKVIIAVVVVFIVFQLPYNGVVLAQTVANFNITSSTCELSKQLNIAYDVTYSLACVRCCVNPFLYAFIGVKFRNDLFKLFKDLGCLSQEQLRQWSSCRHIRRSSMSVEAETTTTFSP

The substance “commercial CCL21 antigen (from UniProt O00585 24-134) (ligand)” registered a Cells in the well of absorbent material (chemotaxis of PBMCs, agarose assay) of 170 cells; a Chemotaxis percentage (PBMCs, agarose assay) of 90%; a Chemotaxis rate (PBMCs, agarose assay) of 153 cells; a cancer cell migration after 72 hours, wound healing assay of 90%. Also, the survival of MCF7 cancer cells, MTT assay, 7.5 µg/ml amounted to 33%.
